Results: publication PMC3623789

Experiment: confocal imaging, co-localisation with Na+/K+-ATPase, HEK293
Details: glycan lost; control: wild-type 3xFLAG-rPRG3

B1: rPRG3 (plasticity-related gene 3, LPR1): N163Q (protein)
parent chain: MAVENNTQRSYSIIPCFIFVELVIMAGTVLLAYYFECTDTFQVHIQGFFCQDGDLMKPYPGTEEESFISPLVLYCVLAATPTAIIFIGEISMYFIKSTRESLIAEEKMILTGDCCYLSPLLRRIVRFIGVFAFGLFATDIFVNAGQVVTGHLTPYFLTVCQPNYTSTDCRAHHQFINNGNICTGDLEVIEKARRSFPSKHAALSIYSALYATMYITSTIKTKSSRLAKPVLCLGDLCTAFLTGLNRVSEYRNHCSDVIAGFILGTAVALFLGMCVVHNFKGTQGSASKPKPEDPRGVPLMAFPRIESPLETLSAQNHSASMTEVT
localisation_or_trafficking: abolishes
